A short description of the data set: label from the status in PepcDB records.
Regarding “MLIRRKIMQYNDMSKEELLVLKESLNKEYAEAKAKGLALDMSRGKPSAKQLDVSLGLLDTINSSSDLKSLDGTDCRNYGVLDGIPEAKKLMADMMGTTPDHVIVYGNASLNIMYDQISRAYTHGILGNTPWCKLDKVKFLCPVPGYDRHFAITERFGIEMINIPMSESGPDMGMVEEYVSKDASVKGIWCVPKYSNPQGYTYSEETVKRMAALKPAAEDFRIFWDNAYVIHDLYDDNKDEIADIISECEKAGNPDMVFEFASTSKVSFPGSGIAALATSANNIADIKKQLTIQTIGHDKLNQLRHVRFFKDINGLKEHMRKHAEFIRPKFEAVESVLEEELSGLGIGSWTEPKGGYFISFDAMDGCAKAIVAKCKEAGVKLTGAGATFPYGKDPKDSNIRIAPSFPTPEEMKQAADLFVLCVKLVSVEKLLENK”, the protein production result is “failed”. With “MLITLPYFLTRKTLPGYIIGGDTLVHAAIARGIYLGRNPFLDQTYNVYPSWYPFLYHLIVAVTSKVFQISIEGAMLLLQATLAILGCIVFFYVAKNLWGSTAGIMAMAFSLMFLPFHRYPNPKELIPIFGALFILYFVKERWVLSGIILGLGLWSHYASMFPLFVLPLTVYIFTRRKEVITPLLISTIVFLPFAINIISHADHIIPKVEDIYAFWKTDTLEKKLLSLLPPIYLVPFLLLSLYKFYKRRDYEGTVLFLSVVTIWGLRLLPESLKPFGIQIWSTRFTVPLPTIYLLLSAYGISEIKITSKDIKTIFLGILLFLIPIASALNFWEAIKRDPFIWVSEFELKEYFPEEHFIEVSEWIKANTERDNLIATSEEAGMMINALTGRPIMATLYGHGNTFLDNEIRRKDLELLFTADCKEKAKIISKYKIKYIVLDTFVYKRWEVKDMSCIAEPVYKVENVTILRVNLNITYTNKGEIRMNKKLFWLLLIAFVVNFSVIYGRKNPCWRKWRRYDNSHGHD” the entry was “failed”. For the sequence “MLIVGLNGSPKKDGNTAFLVREGLAAAAAAGAETALIHIADAMADQKIPYCTQCSNPCQGACSRHNRLGEAFDLLRRADGLLLGSPVYFGSVSAQLKAFWDKSRILRKEKALLNVVGAGVTVGGARFGGQETTMKALFDMMLVQGMILVGDGHTEADCGHQGSCGQAPASSDEFAIRRVRLAGRRLAEVAAATMTLRRHRA”, the protein production result is “failed”.

On to “MLIVNREEYSKSDFDLRLQAYEEMEQFQEAAGNRFALCLKDPFDIITLVFFLKEKKSSVLLIHEDTPKETAIEMAKRANCIGILYGENSDFTKLEAVNYLAEEPSLLQYSSGTTGEPKLIRRAWTEVDTEIKVYNEALNCDIDEVPIVMAPVSHSYGLICGTLSAITRGSKPIIITNKNPKFALNIVRNTEKHIVYAVPLMLHIMGSFPQGTFQFHKIMTSGAPLPEALFYKLKETTTYMMQQYGCSEAGCISICHDMKSHLDLGNPLPHASISIGSDENAPEEIIVKMNDKEIFTKDLGYKSERGLHFMGRMDDVINVSGLKVFPIEVEETMLRLEGVQEAIVYRGKHPVMGEIVKAKVISHIDPVQIREWCMQHLPSYKVPHEIESVTEIPKNKTGKVSRKLLEMGEVTT”, for which the protein production entry was “failed”.

For “MLKDQANQLEFPRDFLGISLADQPNKYYFIIRTQRIVLEADSSIQLIMEKLQSYKSKVALYFDGFQYQLGDFRLRVGKVVPTHSENVRGIVMEVEYLPISSMEKAQKVMEEFLEIWNEALAKRSLPGKFVNIDLNFGEFGLGDIYTPQHTAVRYALVMAHMIATVQAVRG”, the protein production result is “failed”.

“MLKIKILIIIFCCIGVVKAQTVIPPSSETPPGWIYYDGDEFNGDVIDSRYWGIYGSPKVGRPTYNQENKAMLQTYRPEQVFIETLPTGEKICRIRSFKSKDAPSPVHPSVKSKTGWWSGALSSRDSDTEKYYPLFCRIEIKAKVPYLYGLWNALWLRHYKGAGVAEIDILEFFTKAFGENPYPAKANQTLHLFNSETQKLGINLPKGQIRYTEIGDDKPGDNFHVYAVQIDPDPVDNNHAIITFLIDNKVNYQIHTRTQLGDAYTDFITKARKEDRLDRVWDIAITGQVGAFDKLDVGYPAEELQQFDFDIDWIRVYVRDPHTRIVGNSKLPHTPEADSFVKDLLSRMTVEEKIGQLSQYVGRTLLTGPESEYLSDSLIARGLVGSVLNISGAKTLRDLQEKNMRHSRIKIPILFGMDVIHGYKTIFPTPLAESCSWDLAAIERAAKIAAIESSAAGLHWTFAPMVDIARDARWGRVVEGAGEDTYLGSEIAKARVNGFQWNLWENNSVLACAKHWVAYGLPQAGRDYAPVDMSERTLFDTYLPPFKACIDAGVLTFMSAFNDINGIPASAHPFLLKDLLRGQWNFNGFVVSDWEAVKQLVAQGVAEDDKDATRLAFNSGIDMDMTDGLYNKYMKELIEAGKISMEDVDNSVSRILHIKYALGLFVDPYKFCNEEYESQTIMKKEFLDAALDMAHKSAVLLKNDNHTLPLAKNVRSIAVVGPLADNQTELLGSWRARGEDRHVTTVLQGIKNKIGGNKTKVGYARGCDFDGEDKSGFKEAVKLASKSDMVIAVVGEKALMSGESRSRAQLDLPGVQEELIKELVATGKPVVVVLMNGRPLSIEWVDKNVSAILETWFLGTSAGTAIADILFGDYNPSGRLTISFPRVEGQVPIYYNYKKSGRPGDMLHSSTTRHIDVPNAPLYPFGYGLSYTTFSYSAPQSTQKEYTRQETISVSVTVTNTGDRDGEETVQLYVNDKVASVVRPVKELKAFKKIFLKAGESKTVQFDISPLALGFYDAAMNYVVEPGEFEIMTGCNSNDLQTISVKLIN”: the protein production result was “failed”.

For “MLKKGNEMKAVIVYASVHHGNTKKIEEAMASVISADVIDVTRKIKPDLSGYDVIGFVSGVYFHTFHEGIKKCIEENMSSKGQKVFLVATCGLGYRDYTKGMKDTLAKKDVLCMGSFQCRGWDTYGIFGKIGGIAKKHPNDRDLKEAQEFVLKTVCKTNLEHHHHHH”, the protein production entry is listed as “not failed”. Under “MLKLGVIGTGAISHHFIEAAHTSGEYQLVAIYSRKLETAATFASRYQNIQLFDQLEVFFKSSFDLVYIASPNSLHFAQAKAALSAGKHVILEKPAVSQPQEWFDLIQTAEKNNCFIFEAARNYHEKAFTTIKNFLADKQVLGADFNYAKYSSKMPDLLAGQTPNVFSDRFAGGALMDLGIYPLYAAVRLFGKANDATYHAQQLDNSIDLNGDGILFYPDYQVHIKAGKNITSNLPCEIYTTDGTLTLNTIEHIRSAIFTDHQGNQVQLPIQQAPHTMTEEVAAFAHMIQQPDLNLYQTWLYDAGSVHELLYTMRQTAGIRFEAEK” stands “not failed”; under “MLKLTPLLLAIAYGFLMYQFSVWRTKRMLDAQSRPLDEPEILALARRMAAALDLPTVKVSVFEVDPVNGLAAPDGRIFLTRGFLKKYRAGEVTAEELASVIAHELGHVALGHSRRRMIDFTGQNAVLMMLGAVLNRFVPFAGIWIARLLTSALSARLSRRDEHEADAYASALLVKAGIGTEPQKSLFRKLHRWSGMNSSAVPAWLMSHPVTDERIRRIEEREARWIEGLEHHHHHH”, “failed”.

“MLKNIDPALNADVLHALRAMGHGDTLVISDTNFPSDSVARQTTVGKVLHIDNVSAARAMKAILSVLPLDTPLQPSVGRMEVMGAPDQLEPVQVEVQQEIDAAEGKSAPMYGIERFAFYEKAKQAYCVITTGETRFYGCFLLTKGVIPPK”: the protein production result is “not failed”. Under “MLKNLRIRKFEPEEEYVYFTYSIKNDKREKSKELIREYTTLLQKAIDYLWNLTKIQVRKKNGNYKITLPKKREVYKPLREELEKINHLASHYVDKAINDAFSILKSWRKRAIKGRASIEKPRVKKAYVRIKTTLRKVVGESVRITVRPHEYITFSWSKSWFSRRVRELELGEPIIKEEKVYLPFRYKLPWATPVDFLAIDSNLYTLDAYDGEKFVTISLKQLYSLKYSMEVKRAKVQSFASKHTKRGRELMRKYSHRERNRVLDFVHKFVNTLLDLYPMTFFAVEKLNKESMFKDANDSLSRKISRTVWGSIHRVLKYKAPLYGSFVKEVNPRFTSRSCPRCGFVSRKVGKTFECERCGFKLDRQLNASLNIYLKMCGFPHIREIARVWVGVIPLMGRRGMNGFPRDFGEAQGLRIDIEYHEIPLEHHHHHH” stands “not failed”; under “MLKPTHFVVAARVTLVLGGLAVAVLALGPFQGAERIVGLNDKAAHAIAFGGLLAVSFLAFPRMRRNDLAIAALVLGAGVEVAQLFGGRSASLLDWLADAAGVLTIYGASMIETVRKMAREQGDMTFAEIAATDRRRARRRAPAVFTPLVETPQTEHAPPLSFAQRAARRFPVS”, “failed”.
